# According to patent US20160038588A1, “Myostatin Antagonism in Human Subjects” (AMGEN INC., priority 2013, published 2016):
# Tested on: men with prostate cancer receiving ADT
# Assay: Clinical study: safety (adverse events, laboratory variables, ECG, vital signs)
# Format: in vivo, human
# Settings: for DEATHS ON STUDY: during study or within 30 days of last dose
# Experimental: Adverse events and concomitant medications were recorded at all study visits.
# For safety analyses, all subjects who received AMG 745 or placebo were included and placebo-treated subjects from all cohorts were combined to form a composite placebo group.
# [1] = 0.3 mg/kg SC 4-Week Dosing (N = 6)
# [2] = 1.0 mg/kg SC 4-Week Dosing (N = 6)
# [3] = 3.0 mg/kg SC 4-Week Dosing (N = 19)
substance,measurement,setting,value
AMG 745: anti-myostatin peptibody: human IgG1 Fc fused at C-terminus via GGGGGAQ linker to peptide SEQ ID NO:311; chain SEQ ID NO:635,ALL ADVERSE EVENTS,[1],5 (83) n (%)
same,ALL TREATMENT-RELATED ADVERSE EVENTS,[1],1 (17) n (%)
same,INVESTIGATIONAL PRODUCT DISCONTINUATIONS DUE TO ADVERSE EVENTS,[1],0 (0) n (%)
same,STUDY DISCONTINUATIONS DUE TO ADVERSE EVENTS,[1],0 (0) n (%)
same,Serious adverse events (all adverse events),[1],0 (0) n (%)
same,Serious adverse events (treatment-related),[1],0 (0) n (%)
same,DEATHS ON STUDY,[1],0 (0) n (%)
same,ALL ADVERSE EVENTS,[2],5 (83) n (%)
same,ALL TREATMENT-RELATED ADVERSE EVENTS,[2],3 (50) n (%)
same,INVESTIGATIONAL PRODUCT DISCONTINUATIONS DUE TO ADVERSE EVENTS,[2],0 (0) n (%)
same,STUDY DISCONTINUATIONS DUE TO ADVERSE EVENTS,[2],0 (0) n (%)
same,Serious adverse events (all adverse events),[2],0 (0) n (%)
same,Serious adverse events (treatment-related),[2],0 (0) n (%)
same,DEATHS ON STUDY,[2],0 (0) n (%)
same,ALL ADVERSE EVENTS,[3],15 (79) n (%)
same,ALL TREATMENT-RELATED ADVERSE EVENTS,[3],3 (16) n (%)
same,INVESTIGATIONAL PRODUCT DISCONTINUATIONS DUE TO ADVERSE EVENTS,[3],1 (5) n (%)
same,STUDY DISCONTINUATIONS DUE TO ADVERSE EVENTS,[3],0 (0) n (%)
same,Serious adverse events (all adverse events),[3],1 (5) n (%)
same,Serious adverse events (treatment-related),[3],0 (0) n (%)
same,DEATHS ON STUDY,[3],0 (0) n (%)
same,relationship between subject incidence of adverse events and dose,0.3 to 3 mg/kg,No relationship was apparent
same,highest alanine aminotransferase [ALT],"1 subject, 0.3 mg/kg",1.7 times the upper limit of normal (ULN)
same,highest alkaline phosphatase [AP],"1 subject, 0.3 mg/kg",1.5 times the upper limit of normal (ULN)
same,highest aspartate aminotransferase [AST],"1 subject, 0.3 mg/kg",2.2 times the upper limit of normal (ULN)
same,"injection site bruising, subject incidence",2/31,6%
same,subjects discontinued because of adverse events (erythema of the abdomen),"3-mg/kg dose cohort, after the second dose",1 subject
same,"serious adverse events (syncope), number","3-mg/kg dose cohort, considered unrelated to treatment",1
same,"contusion, subject incidence",3/31,10%
same,"diarrhea, subject incidence",4/31,13%
same,"fatigue, subject incidence",4/31,13%
same,tolerability,"4 weekly SC doses, as high as 3.0 mg/kg",generally well tolerated
same,subjects with treatment-related adverse events,"AMG 745 at any dose, 7 of 31 subjects",23%
same,subjects with adverse events,"AMG 745 at any dose, 25 of 31 subjects",81%
same,ALL ADVERSE EVENTS,All AMG 745 Subjects (N = 31),25 (81) n (%)
same,ALL TREATMENT-RELATED ADVERSE EVENTS,All AMG 745 Subjects (N = 31),7 (23) n (%)
same,INVESTIGATIONAL PRODUCT DISCONTINUATIONS DUE TO ADVERSE EVENTS,All AMG 745 Subjects (N = 31),1 (3) n (%)
same,STUDY DISCONTINUATIONS DUE TO ADVERSE EVENTS,All AMG 745 Subjects (N = 31),0 (0) n (%)
same,Serious adverse events (all adverse events),All AMG 745 Subjects (N = 31),1 (3) n (%)
same,Serious adverse events (treatment-related),All AMG 745 Subjects (N = 31),0 (0) n (%)
same,DEATHS ON STUDY,All AMG 745 Subjects (N = 31),0 (0) n (%)
same,"fasting plasma glucose, insulin, cholesterol, LDL, HDL, triglycerides vs placebo","human, in vivo",no apparent differences between treatment groups
